# Experiment: soluble on expression in E. coli; label from the status in PepcDB or PDB records
row,Sequence,soluble on expression in E. coli
1,MPIRFLHTADLHLDSPLRTFGDLARERRRDFLKTFDRIVNLAIKREVDCILIAGDLFDSTSVGAETVGRVQDAFSRLAGRGVQVVLIPGTHDNIISAESVYSRYQFTGVHILREPAVDEPLRLDIRGEAVFFYGFAYRSDRSREALESMRRRSGDGIHVGLLHGSLKGNPEWEMRKKDIPFSVADLVALDLDYIALGHYHDAACLEEGGRVIACYPGSPEGKKFGENGPRYALIVEVAPGNASVERVEVQTRIIREFNVDASLFAEPAALEAELARLGTSDTVGRIRLCGTVEEPLDTANLSGRVKGNFAWLELVDETDLYNSGHVKRMEREDSIRGLFIRKIHERYDAAGSDAERELCRDALRLVMGRFSRGGGN,not soluble
2,MPITIGRGFLKSEMFSQSAISQRSFFTLLWEKIKDFFCDTQRSTADQYIKELCDVASPPDAQRLFDLFCKLYELSSPSCRGNFHFQHYKDAECQYTNLCIKDGEDIPLCIMIRQDHYYYEIMNRTVLCVDTQSAHLKRYSDINIKASTYVCEPLCCLFPERLQLSLSGGITFSVDLKNIEETLIAMAEKGNLCDWKEQERKAAISSRINLGIAQAGVTAIDDAIKNKIAAKVIENTNLKNAAFEPNYAQSSVTQIVYSCLFKNEILMNMLEESSSHGLLCLNELTEYVALQVHNSLFSEDLSSLVETTKNEAHHQSLEHHHHHH,not soluble
3,MPIVNQSSLVPYSAEQMYQLVNDYEKYPQFLSGCIGAKTISRGNNELEAELQIQKLGISQSFSTHNKMLPNERIEMKLVNGPFRQLQGAWNFQPFDEQSCKISLYLEFEFSNPVVGMVFGKIFNELTLKMVNAFKQRAKEVYGVLEHHHHHH,soluble
4,MPKDKLVITVSGLAGSGTTTLSKKIAEHYGLKHVYAGLIFRQMAKEKGMSLEEFQKYAELHPEIDREVDRRQIEAAKEGNVVIEGRLAGWMVKNADLKIWLDAPIRVRAERVAKREGISVEEAFMKIAEREMQNRKRYLNLYGIDINDLSIYDLIINTSKWSPEGVFAIVKAAIDHLDPVGDAGSKKEKEVG,soluble
5,MPKFDVSKSDLERLIGRSFSIEEWEDLVLYAKCELDDVWEENGKVYFKLDSKDTNRPDLWSAEGVARQIKWALGIEKGLPKYEVKKSNVTVYVDEKLKDIRPYGVYAIVEGLRLDEDSLSQMIQLQEKIALTFGRRRREVAIGIFDFDKIKPPIYYKAAEKTEKFAPLGYKEEMTLEEILEKHEKGREYGHLIKDKQFYPLLIDSEGNVLSMPPIINSEFTGRVTTDTKNVFIDVTGWKLEKVMLALNVMVTALAERGGKIRSVRVVYKDFEIETPDLTPKEFEVELDYIRKLSGLELNDGEIKELLEKMMYEVEISRGRAKLKYPAFRDDIMHARDILEDVLIAYGYNNIEPEEPKLAVQGRGDPFKDFEDAIRDLMVGFGLQEVMTFNLTNKEVQFKKMNIPEEEIVEIANPISQRWSALRKWILPSLMEFLSNNTHEEYPQRIFEVGLATLIDESRETKTVSEPKLAVALAGTGYTFTNAKEILDALMRHLGFEYEIEEVEHGSFIPGRAGKIIVNGRDIGIIGEVHPQVLENWNIEVPVVAFEIFLRPLYRH,soluble
6,MPKPSVGINGFGRIGRLVLRAAVEKDSVNVVAVNDPFISIDYMVYLFQYDSTHGRFKGTVAHEGDYLLVAKEGKSQHKIKVYNSRDPAEIQWGASGADYVVESTGVFTTIEKANAHLKGGAKKVIISAPSADAPMFVVGVNHEKYDHANDHIISNASCTTNCLAPLAKVINDNFGIIEGLMTTVHAVTATQKTVDGPSGKLWRDGRGAGQNIIPASTGAAKAVGKVIPELNGKLTGMAFRVPTPDVSVVDLTARLEKPASLDDIKKVIKAAADGPMKGILAYTEDQVVSTDFVSDTNSSIFDAGASISLNPHFVKLVSWYDNEFGYSNRVVDLISYIATKA,not soluble
7,MPKSDTKQKKRRSNKNRLRIKRARLFGPKDIDQVKEDIESQKKIEYDPELPGGGHFYCCECDRHFITEKVLMEHKRSNPHRRRAKEVREVAHSQRDAEWAVGLT,not soluble
8,MPLITTETGKKMHVLEDGRKLITVIPGDGIGPECVEATLKVLEAAKAPLAYEVREAGASVFRRGIASGVPQETIESIRKTRVVLKGPLETPVGYGEKSANVTLRKLFETYANVRPVREFPNVPTPYAGRGIDLVVVRENVEDLYAGIEHMQTPSVAQTLKLISWKGSEKIVRFAFELARAEGRKKVHCATKSNIMKLAEGTLKRAFEQVAQEYPDIEAVHIIVDNAAHQLVKRPEQFEVIVTTNMNGDILSDLTSGLIGGLGFAPSANIGNEVAIFEAVHGSAPKYAGKNVINPTAVLLSAVMMLRYLEEFATADLIENALLYTLEEGRVLTGDVVGYDRGAKTTEYTEAIIQNLGKTPRKTQVRGYKPFRLPQVDGAIAPIVPRSRRVVGVDVFVETNLLPEALGKALEDLAAGTPFRLKMISNRGTQVYPPTGGLTDLVDHYRCRFLYTGEGEAKDPEILDLVSRVASRFRWMHLEKLQEFDGEPGFTKAQGED,soluble
9,MPLSTSDNIAAVIVTHKRVELLRASLEVVAAQTHPVKWIIVVDNGCEDAVRDLLHSVAGDRGIYLPSHTNLGGAGGFAYGFLTALALGADAIWCADDDGRPEGPQVLATLIDAAVTHQLDEVSPVVCNMDDPNRLAFPLRRGLEWRRYRSELIDPNNPSDTLLPGIASLFNGALISAAAMERIGVPDLRLFIRGDEVEYHRRLVRSGLNFGTCLTTAYLHPDGSDEFKPILGGRMHTQYPASDAKRYFTYRNRGYLMNQPGMRRLLPQEYARFAWFFLIQRRDPRGFLEWFKLHQLGRSEKFERPLEHHHHHH,not soluble
10,MPLSYSSPSSSEERSDDPSKYDGDFGVPQICFCGKQLELVERLIGDQKKTFLKCPMSGQDDNYHVDKGWDLAVHEQCFCIDKRFGEHRELIQNAFKFGGDSNRLQINQIHAEIEDLKHRLDKKDAEIARLMDALGKK,not soluble
11,MPLTQTQRLINTYGASLKNGTISNEELIILLDPNTFTKSEGYVDPNAPVSDSNHSKMDAIKDFVLTIGPTLDSEILHQLTSRMIELSPPGDRNTFMRGSSLEKAFLAFEMAHYPTKAEEHFNSTRVRTEFPGENDIDNLKAVILNPIIAFFQSPPGTDEKLEKLIKLCTDYKEHLKPSLTDDANNLVNKKHAIVTNMLAALTDSTAPNNATKIKNMEQILTEENKATLKDRRDSFSGARFLESILHILSLGIYSKLTKGTFKFWKSHGEALSDNIEEVSKQQPGMK,not soluble
12,MPLVTRNIEPRHLCRQTLPSVRSELECVTNITLANVIRQLGSLSKYAEDIFGELFTQANTFASRVSSLAERVDRLQVKVTQLDPKEEEVSLQGINTRKAFRSSTIQDQKLFDRNSLPVPVLETYNTCDTPPPLNNLTPYRDDGKEALKFYTDPSYFFDLWKEKMLQDTKDIMKEKRKHRKEKKDNPNRGNVNPRKIKTRKEEWEKMKMGQEFVESKEKLGTSGYPPTLVYQNGSIGCVENVDASSYPPPPQSDSASSPSPSFSEDNLPPPPAEFSYPVDNQRGSGLAGPKRSSVVSPSHPPPAPPLGSPPGPKPGFAPPPAPPPPPPPMIGIPPPPPPVGFGSPGTPPPPSPPSFPPHPDFAAPPPPPPPPAADYPTLPPPPLSQPTGGAPPPPPPPPPPGPPPPPFTGADGQPAIPPPLSDTTKPKSSLPAVSDARSDLLSAIRQGFQLRRVEEQREQEKRDVVGNDVATILSRRIAVEYSDSEDDSSEFDEDDWSD,soluble
13,MPMLSEEEGGAKIVLEGPKELLDRIVEALKEVYDPEIPVNVYDLGLIYEVRVEGPREKPRIKVKMSLTAIGCPVSVALPAYVEDAIREAVPEAEDVEVEVVFDPPWTPERVTPEGRELLKTIYGYDVVEQWKRAAQQQYGG,soluble
14,MPMNTTGMSFSSFGISCHRENSFRNSFRGKNDEVVKCSIGERTISFSVRKFSGNILETVRRQSTKDIDEWIKDERIVYPSRVINQEIDNYCFQKNAKISTEERQRVFFLVSQENQLTLDVKAAQSSINHVIMGSASFGKKMDALCDGMSRDVKNRTSDTIANLLADKFYQKHIDSDIDIVKLRNDIPDYLMRAIQG,not soluble
15,MPMRYWLMKSEPDETSIDHLAAEPARLFEWTGVRNYQARNFMRDDMQPGDLLLFWHSSCPEPGIAGIAEVAAAAHADSSQFDPASPYHDPKSDPADPRWLCVDVRFVRKTRLLPPAELRRHPPLEGMTVLKRGNRLSITPVTAEEWAYLMDLLDIRRAGLEHHHHHH,soluble
16,MPNKISGSIAPSASSDAMKSADCAENIKEEVVSKHVHQAVPAELADLPSRQPPRSKTALYQVIQKFRDPLPLPPPPTSHPVLAYDRDLGSSDNFRSSDEFDLPESLNPTGWKNLHVSGSGSIASIGQITRLRPSKERPVVVLDAREESHAIVGGYPGTWRTPNNWGNAGKSRDEALADEQQRIQALKSQETVHIFHRKDVKSEARNPRGATLSKPLIFSEEELVRAAGAKYVRLTVTDHLSPRADDIDAFIAMEREMAHDERLHVHCGMGLGRTTIFIVMHDILRNAAMLSFDDIIERQRKFNPGRSLDNNKDVSDKGRSEFRNERSEFLPLFYEYAKQNPKGQPLLWSEWLDHNA,not soluble
17,MPNPRRIVFGDVHGHFDALTALFEAIAPNERDGVYFVGDLIDRGPESAKVVDFVMENKYHCLLGNHEQMMLDAVGGFNFSPQLLHAWIYSGGKSTLESYEHQIPQSHVDWMRNLPLYLDLGDVWLVHAGVDPRLPIEEQGEAQFCWIRDEFHRYPYPYFANKLIITGHTITFTFANVEPGKLVSGPGWLDIDTGAYHPKSGWLTALELNNQEVYQAHIFTNEVRRLPLEDAVVPLEHHHHHH,soluble
18,MPNQGSSNKVYVIGVGMTKFEKPGRREGWDYPDMARESGTKALRDAGIDYREVEQGYVGYVYGESTSGQRALYELGMTGIPIVNVNNNCSTGSTALYLGAQAIRGGLADCVLALGFEKMQPGALGGGADDRESPLGRHVKALAEIDEFGFPVAPWMFGAAGREHMKKYGTTAEHFAKIGYKNHKHSVNNPYAQFQDEYTLDDILASKMISDPLTKLQCSPTSDGSAAVVLASEDYLANHNLAGRAVEIVGQAMTTDFASTFDGSARNIIGYDMTVQAAQRVYQQSGLGPKDFGVIELHDCFSANELLLYEALGLCGPGEAPELIDDNQTTYGGRWVVNPSGGLISKGHPLGATGLAQCAELTWQLRGTAEARQVDNVTAALQHNIGLGGAAVVTAYQRAER,not soluble
19,MPPIPSRARVYAEVNPSRPREYWDYEAHMIEWGQIDDYQLVRKLGRGKYSEVFEGFKMSTDEKVVVKILKPVKKKKIKREIKILENLRGGTNIITLLDVVKDPISRTPALIFEHVNNSDFKQLYQTLSDYDIRYYLYELLKALDFCHSQGIMHRDVKPHNVMIDAEKRELRLIDWGLAEFYHPRQDYNVRVASRYFKGPELLVDYQCYDYSLDMWSLGCMLASMIFRKEPFFHGHDNYDQLVRIAKVLGTDELYEYIARYHIDLDPRFNDILGRHSRKRWERFIHAENQHLVTPEALDFLDKLLRYDHAERLTAQEAMGHEYFRPVVEAHARANGTEQADGQGASNSASSQSSDAKIDGA,not soluble
20,MPPLFHPHLVNGPFDDPGLYVDFLFERRAVLFDLGDTAPLPPRKVLRLSHIFVSHTHVDHFIGFDRVVRLCLGREKRLHLLGPPGFVDQVAARLAGYTWNLVETFPTDFTLAAAELHPDGSVHSAEFHCLAAFSRDNERRDRAAGGVLLDEEAFRVRSVFLDHGIPCLAFALEEKNHVHILKNRLREAGLPTGAWLAELKRAILGGRDDGEPFRAWWRDGGKECEAWFPLGELRERFTKTVAGQKIVYVTDAAPTPENRRLIVELAAGADYLFIEAPFLDEERERAGDRCHLTARIAGELGRDAGVARVVPFHFSPRYMGRESLLRDEVERAFRGLEHHHHHH,not soluble
21,MPPRKIKKDPAVVAMADTLETRVKDLLEEYKKKLREVALQTAKAESDRIIATIKPKYRDMPIMEFLASPPDDFYIESGEEEEEGEAAVAVKQELPSEPDMEIDDAAAAQKTSIPIGQNSGRNTVQVKQEPEIDDDAAHETSIPIAPSGQNSGRNTAADEHRRNEIITPAGQVLPLPTLQPEKPFRAPHVDEEIAFSVNGSPLVLAGRTTATAAGKENRKKSKKSGAASKKAAAAAGPLQPETENAGTSV,not soluble

# — the DeepSol protein solubility set
